According to the RNAGym collection of RNA variant scans (doi:10.7554/elife.80360):

B1: CPEB3 Ribozyme (parent)
chain: GGGGGCCACAGCAGAAGCGUUCACGUCGCGGCCCCUGUCAGAUUCUGGUGAAUCUGCGAAUUCUGCUGU

Variants of: B1
Experiment: self-cleavage, relative activity (ratio to wild type); higher = more cleavage; co-transcriptional

Variant	self-cleavage
GGGAGCCACAGCAGAAGCGUUCACAUCGCGGCCCCUGUCAGAUUCUGGUGAAUCUGCGAAUUCUGCUGU [G4A G25A]	0.117
GGGAGCCACAGCAGAAGCGUUCACUUCGCGGCCCCUGUCAGAUUCUGGUGAAUCUGCGAAUUCUGCUGU [G4A G25U]	0.0834
GGGAGCCACAGCAGAAGCGUUCACGUCCCGGCCCCUGUCAGAUUCUGGUGAAUCUGCGAAUUCUGCUGU [G4A G28C]	0.162
GGGAGCCACAGCAGAAGCGUUCACGUCUCGGCCCCUGUCAGAUUCUGGUGAAUCUGCGAAUUCUGCUGU [G4A G28U]	0.127
GGGAGCCACAGCAGAAGCGUUCACGUCGCAGCCCCUGUCAGAUUCUGGUGAAUCUGCGAAUUCUGCUGU [G4A G30A]	0.294
GGGAGCCACAGCAGAAGCGUUCACGUCGCCGCCCCUGUCAGAUUCUGGUGAAUCUGCGAAUUCUGCUGU [G4A G30C]	0.188
GGGAGCCACAGCAGAAGCGUUCACGUCGCUGCCCCUGUCAGAUUCUGGUGAAUCUGCGAAUUCUGCUGU [G4A G30U]	0.0939
GGGAGCCACAGCAGAAGCGUUCACGUCGCGCCCCCUGUCAGAUUCUGGUGAAUCUGCGAAUUCUGCUGU [G4A G31C]	0.148
GGGAGCCACAGCAGAAGCGUUCACGUCGCGUCCCCUGUCAGAUUCUGGUGAAUCUGCGAAUUCUGCUGU [G4A G31U]	0.159
GGGAGCCACAGCAGAAGCGUUCACGUCGCGGCCCCUAUCAGAUUCUGGUGAAUCUGCGAAUUCUGCUGU [G4A G37A]	0.179
GGGAGCCACAGCAGAAGCGUUCACGUCGCGGCCCCUCUCAGAUUCUGGUGAAUCUGCGAAUUCUGCUGU [G4A G37C]	0.149
GGGAGCCACAGCAGAAGCGUUCACGUCGCGGCCCCUUUCAGAUUCUGGUGAAUCUGCGAAUUCUGCUGU [G4A G37U]	0.154
GGGAGCCACAGCAGAAGCGUUCACGUCGCGGCCCCUGUCAAAUUCUGGUGAAUCUGCGAAUUCUGCUGU [G4A G41A]	0.506
GGGAGCCACAGCAGAAGCGUUCACGUCGCGGCCCCUGUCAGAUUCUAGUGAAUCUGCGAAUUCUGCUGU [G4A G47A]	0.895
GGGAGCCACAGCAGAAGCGUUCACGUCGCGGCCCCUGUCAGAUUCUCGUGAAUCUGCGAAUUCUGCUGU [G4A G47C]	0.901
GGGAGCCACAGCAGAAGCGUUCACGUCGCGGCCCCUGUCAGAUUCUGAUGAAUCUGCGAAUUCUGCUGU [G4A G48A]	0.92
GGGAGCCACAGCAGAAGCGUUCACGUCGCGGCCCCUGUCAGAUUCUGGUAAAUCUGCGAAUUCUGCUGU [G4A G50A]	0.839
GGGAGCCACAGCAGAAGCGUUCACGUCGCGGCCCCUGUCAGAUUCUGGUCAAUCUGCGAAUUCUGCUGU [G4A G50C]	0.808
GGGAGCCACAGCAGAAGCGUUCACGUCGCGGCCCCUGUCAGAUUCUGGUUAAUCUGCGAAUUCUGCUGU [G4A G50U]	0.849
GGGAGCCACAGCAGAAGCGUUCACGUCGCGGCCCCUGUCAGAUUCUGGUGAAUCUCCGAAUUCUGCUGU [G4A G56C]	0.456
GGGAGCCACAGCAGAAGCGUUCACGUCGCGGCCCCUGUCAGAUUCUGGUGAAUCUUCGAAUUCUGCUGU [G4A G56U]	0.744
GGGAGCCACAGCAGAAGCGUUCACGUCGCGGCCCCUGUCAGAUUCUGGUGAAUCUGCAAAUUCUGCUGU [G4A G58A]	0.683
GGGAGCCACAGCAGAAGCGUUCACGUCGCGGCCCCUGUCAGAUUCUGGUGAAUCUGCUAAUUCUGCUGU [G4A G58U]	0.9
GGGAGCCACAGCAGAAGCGUUCACGUCGCGGCCCCUGUCAGAUUCUGGUGAAUCUGCGAAUUCUACUGU [G4A G65A]	0.735
GGGAGCCACAGCAGAAGCGUUCACGUCGCGGCCCCUGUCAGAUUCUGGUGAAUCUGCGAAUUCUCCUGU [G4A G65C]	0.418
GGGAGCCACAGCAGAAGCGUUCACGUCGCGGCCCCUGUCAGAUUCUGGUGAAUCUGCGAAUUCUUCUGU [G4A G65U]	0.406

Variant	self-cleavage
GGGAGCCACAGCAGAAGCGUUCACGUCGCGGCCCCUGUCAGAUUCUGGUGAAUCUGCGAAUUCUGCUUU [G4A G68U]	0.978
GGGAGCCACAGCAGAAGCGAUCACGUCGCGGCCCCUGUCAGAUUCUGGUGAAUCUGCGAAUUCUGCUGU [G4A U20A]	0.23
GGGAGCCACAGCAGAAGCGGUCACGUCGCGGCCCCUGUCAGAUUCUGGUGAAUCUGCGAAUUCUGCUGU [G4A U20G]	0.0767
GGGAGCCACAGCAGAAGCGUCCACGUCGCGGCCCCUGUCAGAUUCUGGUGAAUCUGCGAAUUCUGCUGU [G4A U21C]	0.465
GGGAGCCACAGCAGAAGCGUGCACGUCGCGGCCCCUGUCAGAUUCUGGUGAAUCUGCGAAUUCUGCUGU [G4A U21G]	0.253
GGGAGCCACAGCAGAAGCGUUCACGCCGCGGCCCCUGUCAGAUUCUGGUGAAUCUGCGAAUUCUGCUGU [G4A U26C]	0.827
GGGAGCCACAGCAGAAGCGUUCACGUCGCGGCCCCCGUCAGAUUCUGGUGAAUCUGCGAAUUCUGCUGU [G4A U36C]	0.792
GGGAGCCACAGCAGAAGCGUUCACGUCGCGGCCCCGGUCAGAUUCUGGUGAAUCUGCGAAUUCUGCUGU [G4A U36G]	0.424
GGGAGCCACAGCAGAAGCGUUCACGUCGCGGCCCCUGACAGAUUCUGGUGAAUCUGCGAAUUCUGCUGU [G4A U38A]	0.761
GGGAGCCACAGCAGAAGCGUUCACGUCGCGGCCCCUGGCAGAUUCUGGUGAAUCUGCGAAUUCUGCUGU [G4A U38G]	0.107
GGGAGCCACAGCAGAAGCGUUCACGUCGCGGCCCCUGUCAGAAUCUGGUGAAUCUGCGAAUUCUGCUGU [G4A U43A]	0.683
GGGAGCCACAGCAGAAGCGUUCACGUCGCGGCCCCUGUCAGACUCUGGUGAAUCUGCGAAUUCUGCUGU [G4A U43C]	0.651
GGGAGCCACAGCAGAAGCGUUCACGUCGCGGCCCCUGUCAGAGUCUGGUGAAUCUGCGAAUUCUGCUGU [G4A U43G]	0.511
GGGAGCCACAGCAGAAGCGUUCACGUCGCGGCCCCUGUCAGAUACUGGUGAAUCUGCGAAUUCUGCUGU [G4A U44A]	0.646
GGGAGCCACAGCAGAAGCGUUCACGUCGCGGCCCCUGUCAGAUCCUGGUGAAUCUGCGAAUUCUGCUGU [G4A U44C]	0.679
GGGAGCCACAGCAGAAGCGUUCACGUCGCGGCCCCUGUCAGAUGCUGGUGAAUCUGCGAAUUCUGCUGU [G4A U44G]	0.558
GGGAGCCACAGCAGAAGCGUUCACGUCGCGGCCCCUGUCAGAUUCCGGUGAAUCUGCGAAUUCUGCUGU [G4A U46C]	0.828
GGGAGCCACAGCAGAAGCGUUCACGUCGCGGCCCCUGUCAGAUUCUGGCGAAUCUGCGAAUUCUGCUGU [G4A U49C]	0.916
GGGAGCCACAGCAGAAGCGUUCACGUCGCGGCCCCUGUCAGAUUCUGGGGAAUCUGCGAAUUCUGCUGU [G4A U49G]	0.728
GGGAGCCACAGCAGAAGCGUUCACGUCGCGGCCCCUGUCAGAUUCUGGUGAACCUGCGAAUUCUGCUGU [G4A U53C]	0.617
GGGAGCCACAGCAGAAGCGUUCACGUCGCGGCCCCUGUCAGAUUCUGGUGAAUCGGCGAAUUCUGCUGU [G4A U55G]	0.52
GGGAGCCACAGCAGAAGCGUUCACGUCGCGGCCCCUGUCAGAUUCUGGUGAAUCUGCGAAAUCUGCUGU [G4A U61A]	0.477
GGGAGCCACAGCAGAAGCGUUCACGUCGCGGCCCCUGUCAGAUUCUGGUGAAUCUGCGAAGUCUGCUGU [G4A U61G]	0.508
GGGAGCCACAGCAGAAGCGUUCACGUCGCGGCCCCUGUCAGAUUCUGGUGAAUCUGCGAAUCCUGCUGU [G4A U62C]	0.587
GGGAGCCACAGCAGAAGCGUUCACGUCGCGGCCCCUGUCAGAUUCUGGUGAAUCUGCGAAUUCUGCAGU [G4A U67A]	0.92
GGGAGCCACAGCAGAAGCGUUCACGUCGCGGCCCCUGUCAGAUUCUGGUGAAUCUGCGAAUUCUGCCGU [G4A U67C]	0.986

Variant	self-cleavage
GGGAGCCACAGCAGAAGCGUUCACGUCGCGGCCCCUGUCAGAUUCUGGUGAAUCUGCGAAUUCUGCGGU [G4A U67G]	0.918
GGGAGCCACAGCAGAAGCGUUCACGUCGCGGCCCCUGUCAGAUUCUGGUGAAUCUGCGAAUUCUGCUGA [G4A U69A]	0.912
GGGAGCCACAGCAGAAGCGUUCACGUCGCGGCCCCUGUCAGAUUCUGGUGAAUCUGCGAAUUCUGCUGG [G4A U69G]	0.985
GGGCGCCCCAGCAGAAGCGUUCACGUCGCGGCCCCUGUCAGAUUCUGGUGAAUCUGCGAAUUCUGCUGU [G4C A8C]	0.578
GGGCGCCGCAGCAGAAGCGUUCACGUCGCGGCCCCUGUCAGAUUCUGGUGAAUCUGCGAAUUCUGCUGU [G4C A8G]	0.545
GGGCGCCUCAGCAGAAGCGUUCACGUCGCGGCCCCUGUCAGAUUCUGGUGAAUCUGCGAAUUCUGCUGU [G4C A8U]	0.617
GGGCGCCACUGCAGAAGCGUUCACGUCGCGGCCCCUGUCAGAUUCUGGUGAAUCUGCGAAUUCUGCUGU [G4C A10U]	0.802
GGGCGCCACAGCGGAAGCGUUCACGUCGCGGCCCCUGUCAGAUUCUGGUGAAUCUGCGAAUUCUGCUGU [G4C A13G]	0.472
GGGCGCCACAGCUGAAGCGUUCACGUCGCGGCCCCUGUCAGAUUCUGGUGAAUCUGCGAAUUCUGCUGU [G4C A13U]	0.302
GGGCGCCACAGCAGCAGCGUUCACGUCGCGGCCCCUGUCAGAUUCUGGUGAAUCUGCGAAUUCUGCUGU [G4C A15C]	0.145
GGGCGCCACAGCAGGAGCGUUCACGUCGCGGCCCCUGUCAGAUUCUGGUGAAUCUGCGAAUUCUGCUGU [G4C A15G]	0.496
GGGCGCCACAGCAGAGGCGUUCACGUCGCGGCCCCUGUCAGAUUCUGGUGAAUCUGCGAAUUCUGCUGU [G4C A16G]	0.122
GGGCGCCACAGCAGAAGCGUUCCCGUCGCGGCCCCUGUCAGAUUCUGGUGAAUCUGCGAAUUCUGCUGU [G4C A23C]	0.432
GGGCGCCACAGCAGAAGCGUUCGCGUCGCGGCCCCUGUCAGAUUCUGGUGAAUCUGCGAAUUCUGCUGU [G4C A23G]	0.349
GGGCGCCACAGCAGAAGCGUUCACGUCGCGGCCCCUGUCCGAUUCUGGUGAAUCUGCGAAUUCUGCUGU [G4C A40C]	0.202
GGGCGCCACAGCAGAAGCGUUCACGUCGCGGCCCCUGUCGGAUUCUGGUGAAUCUGCGAAUUCUGCUGU [G4C A40G]	0.526
GGGCGCCACAGCAGAAGCGUUCACGUCGCGGCCCCUGUCUGAUUCUGGUGAAUCUGCGAAUUCUGCUGU [G4C A40U]	0.228
GGGCGCCACAGCAGAAGCGUUCACGUCGCGGCCCCUGUCAGCUUCUGGUGAAUCUGCGAAUUCUGCUGU [G4C A42C]	0.237
GGGCGCCACAGCAGAAGCGUUCACGUCGCGGCCCCUGUCAGUUUCUGGUGAAUCUGCGAAUUCUGCUGU [G4C A42U]	0.354
GGGCGCCACAGCAGAAGCGUUCACGUCGCGGCCCCUGUCAGAUUCUGGUGCAUCUGCGAAUUCUGCUGU [G4C A51C]	0.381
GGGCGCCACAGCAGAAGCGUUCACGUCGCGGCCCCUGUCAGAUUCUGGUGGAUCUGCGAAUUCUGCUGU [G4C A51G]	0.567
GGGCGCCACAGCAGAAGCGUUCACGUCGCGGCCCCUGUCAGAUUCUGGUGUAUCUGCGAAUUCUGCUGU [G4C A51U]	0.493
GGGCGCCACAGCAGAAGCGUUCACGUCGCGGCCCCUGUCAGAUUCUGGUGACUCUGCGAAUUCUGCUGU [G4C A52C]	0.38
GGGCGCCACAGCAGAAGCGUUCACGUCGCGGCCCCUGUCAGAUUCUGGUGAGUCUGCGAAUUCUGCUGU [G4C A52G]	0.53
GGGCGCCACAGCAGAAGCGUUCACGUCGCGGCCCCUGUCAGAUUCUGGUGAAUCUGCGGAUUCUGCUGU [G4C A59G]	0.37
GGGCGCCACAGCAGAAGCGUUCACGUCGCGGCCCCUGUCAGAUUCUGGUGAAUCUGCGUAUUCUGCUGU [G4C A59U]	0.203
